Legend:
[1] = biological target: fluorophore-labeled ubiquitin G76C (BODIPY TMR C5-maleimide); assay: fluorescence polarisation; 50 nM BODIPY TMR-labelled ubiquitin G76C, E6AP construct titrated (C-lobe 0-500 μM); room temperature; 20 mM HEPES pH 7.2, 200 mM NaCl, 1 mM TCEP, 0.01% Triton X-100; single-site binding model; apparent KD
[2] = biological target: Cys820 (UniProt position 843, PTSHTCFNVLL); assay: chemical modification (stopped-flow kinetics, UV-vis); conditions: 10 °C; 100 mM NaCl; 20 mM sodium acetate, 20 mM sodium phosphate, 20 mM Tris or 20 mM CAPSO (depending on pH); 1 mM EDTA; isolated C-lobe, free (no ubiquitin), reduced thiol, folded

Sequence of E6AP N-lobe (isolated) (Q05086 518-875): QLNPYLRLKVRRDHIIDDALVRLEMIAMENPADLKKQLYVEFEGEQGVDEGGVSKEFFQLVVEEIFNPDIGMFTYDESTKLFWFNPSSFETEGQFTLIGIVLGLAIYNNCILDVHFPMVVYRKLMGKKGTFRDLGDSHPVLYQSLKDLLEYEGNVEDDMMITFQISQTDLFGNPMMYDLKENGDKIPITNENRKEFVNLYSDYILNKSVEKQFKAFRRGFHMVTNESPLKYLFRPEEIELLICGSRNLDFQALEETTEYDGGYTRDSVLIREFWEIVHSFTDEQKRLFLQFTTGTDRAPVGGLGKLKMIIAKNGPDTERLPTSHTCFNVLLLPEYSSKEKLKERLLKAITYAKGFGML
Sequence of E6AP HECT domain (residues 495-852), wild type (Q05086 518-875): as above
Sequence of E6AP C-lobe (residues 741-852) (Q05086 764-875): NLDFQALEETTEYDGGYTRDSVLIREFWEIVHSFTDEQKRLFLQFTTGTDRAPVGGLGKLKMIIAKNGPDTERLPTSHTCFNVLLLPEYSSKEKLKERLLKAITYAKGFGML

Row | Substance | Kd [1] | pKa [2]
1 | E6AP N-lobe (isolated) (from UniProt Q05086-2 495-852) (domain or fragment) | 70 µM | 
2 | E6AP HECT domain I564D/F583D (from UniProt Q05086-2 495-852) (domain or fragment) | 110 µM | 
3 | E6AP (UBE3A) HECT domain C-lobe, Delta4 variant (Homo sapiens; del849-852) |  | 8.7 ± 0.1
4 | E6AP C-lobe (residues 741-852) (from UniProt Q05086-2 741-852) (domain or fragment) | 400 µM | 
5 | E6AP HECT domain (residues 495-852), wild type (from UniProt Q05086-2 495-852) (domain or fragment) | 83 µM | 
6 | E6AP HECT domain F665D (from UniProt Q05086-2 495-852) (domain or fragment) | 120 µM | 
7 | E6AP (UBE3A) HECT domain C-lobe, wild type (Homo sapiens) |  | 8.7 ± 0.1
